From the supplement of paper PMC11865577

Tests used:
Experiment in all cases: pull-down binding Z-score (relative to library population); higher = stronger binding
[1] = test system: TO-N3-2 (biotin conjugate); details: RNA library: Library-2
Method in brief: (§1)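 A heat-folded, dye-end-labelled (Cy5 or Cy3) RNA library (1 μg, phosphate/NaCl/KCl buffer) was exposed for 60 min at 25 °C to streptavidin beads holding 100 pmol of biotin-conjugated small molecule. RNA retained on the beads was eluted in hot SDS and hybridised to a DNA barcode microarray for 20 h at 55.5 °C. Binding scores were Z-scores against the library mean and standard deviation, calculated after subtracting beads alone and taking trimmed means of replicate probes.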

[2] = test system: TO-3-N3 (biotin conjugate); details: RNA library: Library-2
Method in brief: as §1

[3] = test system: TO-3-N3-2 (biotin conjugate); details: RNA library: Library-2
Method in brief: as §1

TO-N3 (biotin conjugate) = details: RNA library: Library-2
Method in brief: as §1

[4] = test system: G-clamp-N3 (biotin conjugate); details: RNA library: Library-1 (pre-miRNA loops + repeats)
Method in brief: as §1

Row | Sequence | pull-down binding Z-score [1] | pull-down binding Z-score [2] | pull-down binding Z-score [3] | pull-down binding Z-score (TO-N3 (biotin conjugate)) | pull-down binding Z-score [4]
1 | AGUUUGUGAUAAUGUUUGUCUAUAUAGUUAUGAAUG [hsa-mir-4307] | -0.531 | -0.811 | -0.174 | -0.633 | 0.397
2 | AUAAUACGGAUUACGUUGUUA [hsa-mir-137] | -0.0367 | -0.188 | -0.139 | 0.148 | -1.89
3 | AUACUGGAGCAAUAGAUACAGUU [hsa-mir-3692] | -0.353 | -0.727 | -0.389 | -0.663 | -0.223
4 | AUAGAACAUUGACAUCAACACUAG [hsa-mir-4278] | -0.508 | -0.104 | -0.0605 | -0.204 | -2.05
5 | AUAGCACAAAGUCUUAUGGUACUGU [hsa-mir-3169] | -0.178 | 0.174 | 0.253 | 0.199 | 1.12
6 | AUAGUUGAGGAGGACACCCAAGGAGAUCACUAU [hsa-let-7e] | 1.26 | 0.341 | 0.863 | 0.871 | -0.413
7 | AUAGUUGUGGGGUAGUGAUUUUACCCUGUUCAGGAGAUAACUAU [hsa-let-7f-1] | 0.224 | 0.676 | 0.657 | 0.842 | -0.471
8 | AUAGUUUAGAAUUACAUCAAGGGAGAUAACUGU [hsa-let-7a-2] | -0.163 | -0.34 | 0.285 | -0.695 | 0.705
9 | AUAGUUUGGGGCUCUGCCCUGCUAUGGGAUAACUAU [hsa-let-7a-3] | 0.141 | -0.227 | -0.115 | -0.227 | 0.889
10 | AUAGUUUUAGGGCAGGGAUUUUGCCCACAAGGAGGUAACUAU [hsa-let-7d] | 0.203 | 0.236 | 0.589 | 0.112 | -0.917
11 | AUAGUUUUAGGGUCACACCCACCACUGGGAGAUAACUAU [hsa-let-7a-1] | -0.0919 | 0.853 | 0.205 | 0.607 | 0.294
12 | AUAGUUUUAGGGUCAUACCCCAUCUUGGAGAUAACUAU [hsa-let-7f-2] | -0.745 | -0.384 | 0.00457 | -0.497 | -1.63
13 | AUAUAAAAUGCAAUUA [hsa-mir-3945] | -0.448 | 0.256 | 0.327 | 0.0171 | -1.21
14 | AUAUAAGGGAAGGCAUUAUAG [hsa-mir-3117] | -0.234 | 0.00808 | 0.0974 | 0.0219 | 0.00615
15 | AUAUAGAUAUCAGCUACCUAUAU [hsa-mir-3144] | -1.38 | -0.694 | -0.329 | -1.06 | -0.95
16 | AUAUGAGCUUCAUUUAUACAUUUCAUAU [hsa-mir-556] | -1.01 | -0.0401 | -0.0541 | -0.335 | -0.528
17 | AUAUGUGUGUAUAUAUGUACACAUAC [hsa-mir-466] | -1.14 | -0.227 | -0.378 | -0.604 | -0.157
18 | AUAUUGACACUAUAACAAUAAUGUCAAUAU [hsa-mir-4795] | -1.79 | -0.438 | -0.44 | -0.874 | 0.669

Row | Sequence | pull-down binding Z-score [1] | pull-down binding Z-score [2] | pull-down binding Z-score [3] | pull-down binding Z-score (TO-N3 (biotin conjugate)) | pull-down binding Z-score [4]
19 | AUCAAAGUGGGGACUCAUGGGGAGAG [hsa-mir-4284] | 1.07 | 3.11 | 1.43 | 2.65 | 0.195
20 | AUCAAGAAAAGAUUUGGUGUUCUUGAU [hsa-mir-4782] | -0.784 | -0.152 | -0.112 | -0.513 | 1.36
21 | AUCACUGAAAUAUGUCUGAGCUUCUGUU [hsa-mir-4501] | -0.302 | -0.584 | -0.00263 | -0.658 | -0.332
22 | AUCAGCAGAGACAUGAGGUGAUCAAAAACCUUUUUUCAAAGCAGUGGG [hsa-mir-4300] | 0.438 | 0.48 | 0.276 | 0.796 | -0.911
23 | AUCAGGCAGUUUCCUG [hsa-mir-4289] | 0.0394 | -0.305 | 0.101 | -0.16 | -1.29
24 | AUCAGUUCUCAUUUUACACACUGGC [hsa-mir-24-1] | -0.282 | -0.563 | -0.0568 | -0.54 | 0.0425
25 | AUCAUAAUAAAGGUGUCAUGAU [hsa-mir-3682] | -0.694 | -0.489 | -0.169 | -0.879 | -0.55
26 | AUCAUCUCUCCCUUGGAU [hsa-mir-3683] | -0.446 | -0.626 | -0.257 | -0.733 | 1.39
27 | AUCAUGUAUAAUUAAAAAUGAU [hsa-mir-509-2_509-3_509-1] | -1 | -0.267 | -0.0578 | -0.599 | -0.568
28 | AUCCAGUCCACUUAAUUCUGAGAAAGUCCACAGACUGGAUCGGGUCUUGGAUUUUAGCUGGAUUCAU [hsa-mir-6082] | 0.4 | -0.796 | -0.223 | -0.258 | -0.0473
29 | AUCCCUUAGAUGCUAAGAUGGGGAU [hsa-mir-145] | -0.75 | -0.278 | -0.237 | -0.513 | 1.18
30 | AUCGGUCGAGAGCGUCCUGGCUGAU [hsa-mir-3178] | 1 | 0.18 | -0.22 | 0.526 | 0.173
31 | AUCUAUUCCAGAAGAU [hsa-mir-4696] | -1.35 | -0.911 | -0.62 | -1.28 | 1.53
32 | AUCUCCUUUAGGAAAACCUUCUGUGGGGAGU [hsa-mir-1296] | -0.641 | -0.0517 | -0.226 | -0.275 | -0.272
33 | AUCUGAAUGAUCUCAGC [hsa-mir-626] | 0.364 | 0.58 | 0.105 | 0.677 | -1.32
34 | AUCUGAGGUGACUGGCACAGAAGACUCAGG [hsa-mir-6735] | 0.797 | 0.238 | 0.101 | 0.673 | -0.394
35 | AUCUGAUGUUGAAUACUCUUUAAGU [hsa-mir-1245a] | -0.685 | -0.143 | -0.281 | -0.322 | -1.01
36 | AUCUGCAGGGCAUUGUGCUAACAGGU [hsa-mir-4681] | 0.0756 | 0.532 | 0.211 | 0.644 | 1.35
